Measured values reported in article PMC4486061 (Journal of Structural Biology, 2010).
Values joined by “and” are separate entries in the source; they are usually repeats but may differ in a detail not shown here. Identical values can stand only once.

Target: the molecule itself
Experiment: PFO-PAGE

B1: SARS-CoV M protein endodomain, residues 107-221 (M_(107-221)) (domain or fragment)
chain: SMWSFNPETNILLNVPLRGTIVTRPLMESELVIGAVIIRGHLRMAGHSLGRCDIKDLPKEITVATSRTLSYYKLGASQRVGTDSGFAAYNRYRIGNYKLNTDHAGSNDNIALLVQ
- stoichiometry N: 2 and 4 and 6
